± gives the standard error. Variants at the floor of the assay were thinned out.
B1: glmS ribozyme (parent)
chain: AUAAAAGCGCCAGAACUACAGAAAUGUAGUUGACGAGGAGGAGGUUUAUCGAAUUUUCGGCGGAUGCCUCCAAA

What was measured:
Conditions in all cases: with glucosamine-6-phosphate
glucosamine-6-phosphate [1] = variants of: B1; assay: self-cleavage kobs at 160 uM GlcN6P; higher = faster cleavage; RNA array
Method in brief: (§1)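 Using a hybridised Cy3 probe at 37 °C, barcoded ribozyme variants transcribed in situ by E. coli RNA polymerase on sequenced MiSeq chips were monitored across tiles imaged over ~14 h. The flow contained glucosamine-6-phosphate from 40 μM to 10 mM in HEPES/KCl/Mg(OAc)2 buffer. Signals were normalised to baseline and to non-cleaving reference variants before per-tile medians were fit to one- or two-exponential decays to yield kobs. Weighted Michaelis–Menten fits across concentrations gave kcat and KM.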

glucosamine-6-phosphate [2] = variants of: B1; assay: self-cleavage kobs at 2500 uM GlcN6P; higher = faster cleavage; RNA array
Method in brief: as §1

glucosamine-6-phosphate [3] = variants of: B1; assay: self-cleavage kobs at 640 uM GlcN6P; higher = faster cleavage; RNA array
Method in brief: as §1

glucosamine-6-phosphate [4] = variants of: B1; assay: self-cleavage kobs at 10000 uM GlcN6P; higher = faster cleavage; RNA array
Method in brief: as §1

| Variant | self-cleavage kobs at 160 uM GlcN6P (glucosamine-6-phosphate [1]) | self-cleavage kobs at 2500 uM GlcN6P (glucosamine-6-phosphate [2]) | self-cleavage kobs at 640 uM GlcN6P (glucosamine-6-phosphate [3]) | self-cleavage kobs at 10000 uM GlcN6P (glucosamine-6-phosphate [4]) |
| --- | --- | --- | --- | --- |
| AUAAAGGCGCCAGAACUACAGAAAUGUAGUUGACGAGGAGAUGGUUUAUCGAAUUUUCGGCGGUUGCCUCCAAA [A6G G41A A42U A64U] | < 1e-05 s⁻¹ | < 1e-05 s⁻¹ |  |  |
| AUAAAAACGCCCGAACUACAGAAAUGUAGUUGACGAGGAGGAGGUUUAUCGAAUUUACGGCGGAUGCCUCCAAA [G7A A12C U57A] | < 1e-05 s⁻¹ | < 1e-05 s⁻¹ | < 1e-05 s⁻¹ |  |
| AUAAAGGCUCCAGAACUACAGAAAUGUAGUUCACGAGGAUGAGGAUGAUCGAAUUUUCGGCGGAUGCCCCCAAA [A6G G9U G32C G40U U45A U47G U69C] | < 1e-05 s⁻¹ |  |  |  |
| AUAAAAACGCCAGAACUACAGAAAUGUAGUUGUCGAGGAGGAGUUUUAUCGAAUUUUCGGCGGAUGCCUCCAAA [G7A A33U G44U] | < 1e-05 s⁻¹ | < 1e-05 s⁻¹ |  |  |
| AUAAAGGCGCAAGUACUACAGAAAUGUAGUUGACGAGGAAGAGGUUUAUCGAAUUUUCGGCGGAUGCCUCCAAA [A6G C11A A14U G40A] | < 1e-05 s⁻¹ |  |  |  |
| AUAAAUGCGCCAGAACUACAGAAAUGUAGUGGACGAGGAGUAGGUUUAUCGAAUUUUCGGCGGCUGCCUCCAAA [A6U U31G G41U A64C] | < 1e-05 s⁻¹ | < 1e-05 s⁻¹ | < 1e-05 s⁻¹ |  |
| AUAAAGGCGCCAGAACUACAGAAAUGUACUUGACGAGGAGGAGGUUUAUCGAAUUUUCGGCGGAUGCCUGCAAA [A6G G29C C70G] | < 1e-05 s⁻¹ | < 1e-05 s⁻¹ |  | < 1e-05 s⁻¹ |
| AUAAAGGCGCCAGAACUACAGAAAUGUAGUUGACGAGGAUGAGGUUUAUCGAAAUUUCGGCGGAUGCCUCCAAA [A6G G40U U54A] | < 1e-05 s⁻¹ |  | < 1e-05 s⁻¹ |  |
| AUAAAGGCGCCAGAACUACAGAAAUGUAGUUGACGAGCAGGAGGUUUAACGAAUUUUCGGCGGAUGCCUCCAAA [A6G G38C U49A] | < 1e-05 s⁻¹ |  | < 1e-05 s⁻¹ |  |
| AUAAAGGCGCCAGAACUACAGAAAUGUAGUUUACGAGGAGGAGGUUUAUGGAAUUUGCGGAGGAUUCCUCCAAA [A6G G32U C50G U57G C61A G66U] | 0.000258 ± 4.1e-05 s⁻¹ | 0.000553 ± 9.8e-05 s⁻¹ |  | 9.54e-05 ± 1.9e-05 s⁻¹ |
| AUAAAGGCGCCAUAACUACAGAAAUGUACUUGACGAGGAGGAGGUUUAUGGAAUUUUCGGCGGAUGCCUCCAAA [A6G G13U G29C C50G] | 0.000248 ± 5.8e-05 s⁻¹ | 0.000163 ± 4.4e-05 s⁻¹ | 0.00012 ± 4.1e-05 s⁻¹ |  |
| AUAAAUGCGGCAGAACUACAGAAAUGUAGUUGACGAGGAGGAGGUUUAUCGGAUUGUCGGCGGAUGCCUCCAAA [A6U C10G A52G U56G] | < 1e-05 s⁻¹ | < 1e-05 s⁻¹ |  |  |
| AUAAAUGCGCCAGAACUACAGAAAUGUAGUUGACGAGGAGGAGGCUUAUCGAAUUUUCGGCGGAUGCCUCCAAA [A6U U45C] | < 1e-05 s⁻¹ |  | < 1e-05 s⁻¹ |  |
| AUAAAUGCGCCAGAACUACAGAAAUGUAGUUGACGAGGAGGAGGUUUAUCGAAUUUUCGGCGGAUAGCUCCAAA [A6U G66A C67G] | < 1e-05 s⁻¹ |  |  |  |
| AUAAAAAUGCCAGAAAUACAGAAAUGUAGUUGACGAGGAGGACUUUUAUCGAAUUUUCGGCGUAUGCUUCCAAA [G7A C8U C16A G43C G44U G63U C68U] | < 1e-05 s⁻¹ | < 1e-05 s⁻¹ | < 1e-05 s⁻¹ | < 1e-05 s⁻¹ |
| AUAAAGGCGCCAGAACUACAGAAAUGUAGUUGACCAGGAGGAGGUUUAUCGAAUUUUCAGCGGAUGCCUCCAAA [A6G G35C G59A] | < 1e-05 s⁻¹ |  | < 1e-05 s⁻¹ |  |

| Variant | self-cleavage kobs at 160 uM GlcN6P (glucosamine-6-phosphate [1]) | self-cleavage kobs at 2500 uM GlcN6P (glucosamine-6-phosphate [2]) | self-cleavage kobs at 640 uM GlcN6P (glucosamine-6-phosphate [3]) | self-cleavage kobs at 10000 uM GlcN6P (glucosamine-6-phosphate [4]) |
| --- | --- | --- | --- | --- |
| AUAAAUGCGCCAGAACUACAGAAAUGUAGUUGACGAGCAGGAGGUUUAUCGAAUUUUCGGCGGUUUCCUCCAAA [A6U G38C A64U G66U] | < 1e-05 s⁻¹ | < 1e-05 s⁻¹ | < 1e-05 s⁻¹ |  |
| AUAAAUGCGCCAGCACUACAGAAAUGUAGUUGACGAGGAGGAGGUUUAUCGAAUUUUCGGCGGAUGCCUCCAAA [A6U A14C] | < 1e-05 s⁻¹ |  |  | 4.13e-05 ± 7.6e-06 s⁻¹ |
| AUAAAUGCGCCAGAACUACAGAAAUGUAGUUGACGAGGAGGAGGAUUGUCGAAUUUUCGGCGGAUGCCUCCAAA [A6U U45A A48G] | < 1e-05 s⁻¹ |  | < 1e-05 s⁻¹ |  |
| AUAAAGGCGCCAGCACUACAGAAAUGUAGUUGACGAGGAGGGGGUUUAGCGAAUUUUCGGCGGAUGCCUCCAAA [A6G A14C A42G U49G] | < 1e-05 s⁻¹ |  |  |  |
| AUAAAGUCGCCAGAACUACAGAAAUGUAGUUGAGGAGGAGGAGGUUUAUCGAAUUUUCGGCGGAUGCCUCCAAA [A6G G7U C34G] | < 1e-05 s⁻¹ | < 1e-05 s⁻¹ | < 1e-05 s⁻¹ |  |
| AUAAAUGCGCCAGAACUACAGAAAUGUAGUUGACCAGGAGGAGGUUUAUCGAAUUUUCGGCGGAUGCCUCCAAA [A6U G35C] | < 1e-05 s⁻¹ |  | < 1e-05 s⁻¹ | < 1e-05 s⁻¹ |
| AUAAAUGCGCCAGAACUACAGAAAUGUAGUUGACGAGGAGGCGGUUUAUCGAAUUUUCGGCGGAUGCCUCCAAA [A6U A42C] | < 1e-05 s⁻¹ | < 1e-05 s⁻¹ |  | < 1e-05 s⁻¹ |
| AUAAACGCGCCAGAACUACAGAAAUGUAGUUGACGAGGAGGAGGUUUAAUGAAUUUUCGGCGGAUGCCUCCAAA [A6C U49A C50U] | < 1e-05 s⁻¹ |  | < 1e-05 s⁻¹ |  |
| AUAAAGGCGCCAGAACUACAGAAAUGUAGUUGACGAGGAGGAGGUUUAUUGAACUUUCGGCGGAUGCCUCCAAA [A6G C50U U54C] | < 1e-05 s⁻¹ | < 1e-05 s⁻¹ | < 1e-05 s⁻¹ |  |
| AUAAAUGCGCCAGAACUACAGAAAUGUAGUAGACGAGGAGGAUGUUUAUCGAAUUUUCGGCGGAUGCCUCCAAA [A6U U31A G43U] | < 1e-05 s⁻¹ | < 1e-05 s⁻¹ | < 1e-05 s⁻¹ |  |
| AUAAAUGCGCCCGAACUACAGAAAUGUAGUUGACGCGCAGGAGGUUUAUCGAAUUUUCGGCGGAUGCCUCUAAA [A6U A12C A36C G38C C71U] | < 1e-05 s⁻¹ | < 1e-05 s⁻¹ | < 1e-05 s⁻¹ |  |
| AUAAAUGCGACAGAACUACAGAAAUGUAGGUGACGGGGAGGCGGUUUACCGAAUUUUCGGCGGAAGCCUCCAAA [A6U C10A U30G A36G A42C U49C U65A] | < 1e-05 s⁻¹ | < 1e-05 s⁻¹ | < 1e-05 s⁻¹ |  |
| AUAAAUGCGCCAGAACUACAGAAAUGUAGGUGACGAGGAGGAGGUUUAUCGAAUUUUCGGCUGAUGCCUCCAAA [A6U U30G G62U] | < 1e-05 s⁻¹ |  | < 1e-05 s⁻¹ |  |
| AUAAAUGCGCCAGAACUACAGAAAUGUAGUUGACGAGGAGGCGGUUUAUCGACUUUUCGGCGGAGGCCUCCAAA [A6U A42C A53C U65G] | < 1e-05 s⁻¹ | < 1e-05 s⁻¹ | < 1e-05 s⁻¹ |  |
| AUAAAGGCGCCAGAACUACAGAAAUGUAGUUGACGAGGAGGAGGUUUAUCGGAUUUUCGGCGUAUGCCUCCAAA [A6G A52G G63U] | < 1e-05 s⁻¹ | < 1e-05 s⁻¹ | < 1e-05 s⁻¹ |  |

Reference: the supplement of paper PMC7125110
